Results reported in patent US20090186337A1 (INSTITUT NATIONAL DE LA RECHERCHE AGRONOMIQUE INRA, published 2009).

Legend:
[1] = biological target: T1, N protein of the measles virus (measles virus strain Edmonston B, UniProt P0DXN6 1-525); assay: coexpression in E. coli and copurification of N with the P fragment
T1 sequence: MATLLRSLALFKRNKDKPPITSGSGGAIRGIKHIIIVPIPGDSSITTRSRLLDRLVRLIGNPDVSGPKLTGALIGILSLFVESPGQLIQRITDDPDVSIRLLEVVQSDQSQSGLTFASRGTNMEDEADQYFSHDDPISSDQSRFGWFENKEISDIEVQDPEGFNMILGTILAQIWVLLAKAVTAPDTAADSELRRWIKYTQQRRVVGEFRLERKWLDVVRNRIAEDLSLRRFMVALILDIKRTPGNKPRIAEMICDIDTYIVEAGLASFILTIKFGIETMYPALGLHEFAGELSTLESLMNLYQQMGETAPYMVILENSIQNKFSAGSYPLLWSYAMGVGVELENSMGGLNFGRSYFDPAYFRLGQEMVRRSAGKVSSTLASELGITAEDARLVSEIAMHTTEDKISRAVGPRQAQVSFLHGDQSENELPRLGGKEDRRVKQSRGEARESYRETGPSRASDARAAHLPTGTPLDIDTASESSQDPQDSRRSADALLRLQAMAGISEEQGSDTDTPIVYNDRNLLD

[2] = biological target: T2, N protein (nucleocapsid protein) of human RSV Long strain (human RSV Long strain, UniProt P03418 1-391); assay: coexpression in E. coli, copurification of N with the P fragment
T2 construct: also called native N protein

[3] = biological target: N protein deleted of 27 residues at the C-terminal end (human RSV Long strain, UniProt P03418 1-364); assay: interaction of truncated N with P (method not detailed)

B1: P protein of the measles virus deleted of its N-terminal part as far as residue 456 (inclusive) (other)
chain: GPASRSVIRSIIKSSRLEEDRKRYLMTLLDDIKGANDLAKFHQMLMKIIMK
notes: also called PΔ457N
- binding result [1]: no binding

B2: protein P (fragment 161-241) fused to GST (other)
chain: SARDGIRDAMVGLREEMIEKIRTEALMTNDRLEAMARLRNEESEKMAKDTSDEVSLNPTSEKLNNLLEGNDSDNDLSLEDF
notes: not shown: GST carrier at the N end (from pGEX-4T-3) and the vector-encoded junction with the thrombin site
- binding result [2]: binds

B3: P protein (phosphoprotein) of human RSV Long strain (other)
chain: SARDGIRDAMVGLREEMIEKIRTEALMTNDRLEAMARLRNEESEKMAKDTSDEVSLNPTSEKLNNLLEGNDSDNDLSLEDF
- binding result [3]: no binding
